The target of test [1] is protein A/G (recombinant fusion protein with protein A and protein G binding sites).
Test [2] shares this target. The source holds these as a separate data set.

Turning to Human IgG protein (antibody), in test [1], the peak wavelength shift after 80 minutes of injection is 6 nm. The exponential constant of the fit to the association phase (peak wavelength shift) in test [2] worked out at 0.000533.

The values above are taken from PMC4209447.
